According to patent US20260274955A1 (JANUX THERAPEUTICS, published 2026):

Columns and labels:
[1] = molecular target: anti-CD28 Fab (SEQ ID NOs: 202, 203); test: phage ELISA, Fab on plate;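 further: ELISA of crude clonal phage supernatants on the plate, wells preloaded with CD28 antigen or only blocking buffer, captured phage read out via HRP-linked anti-M13 antibody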
Target sequence in this assay (VH, as listed by the source, chain 1 of 2): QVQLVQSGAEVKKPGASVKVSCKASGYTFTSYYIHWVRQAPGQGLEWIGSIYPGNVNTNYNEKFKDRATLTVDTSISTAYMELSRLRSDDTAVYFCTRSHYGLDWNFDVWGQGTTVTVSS
Target sequence in this assay (VL, as listed by the source, chain 2 of 2): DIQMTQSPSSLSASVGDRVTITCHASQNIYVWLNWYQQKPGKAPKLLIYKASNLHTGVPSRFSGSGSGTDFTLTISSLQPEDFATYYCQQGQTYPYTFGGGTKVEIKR
Protocol: After panning, phage infected bacteria were plated out and colonies picked into 96 well blocks. Clonal phage was then amplified and separated from bacterial cells via centrifugation.
Clonal phage were harvested as crude supernatants and screened via standard ELISAs. […] Prior to the addition of clonal phage, wells were incubated with blocking buffer and CD28 antigen or blocking buffer alone. Without washing or aspirating, clonal phage supernatants were then added to the wells and incubated for a short time. Wells were then washed followed by detection of bound phage using a horse radish conjugated anti-M13 antibody. Clonal phage of interest were then sent for sequence analysis.

[2] = molecular target: T1, anti-CD28 Fab (SEQ ID NOs: 202, 203); test: phage binding ELISA; Fab wells pre-incubated with CD28 antigen (competitor);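 further: clonal phage supernatants added to wells preincubated with CD28 antigen in blocking buffer versus blocking buffer alone, washed, bound phage read by HRP-conjugated anti-M13 antibody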
T1 construct: biotinylated and captured on neutravidin coated plates in the phage ELISA
T1 sequence (VH, as listed by the source, chain 1 of 2): as the sequence (VH, as listed by the source, chain 1 of 2) above
T1 sequence (VL, as listed by the source, chain 2 of 2): as the sequence (VL, as listed by the source, chain 2 of 2) above
Protocol: (§1) Clonal phage were harvested as crude supernatants and screened via standard ELISAs. […] Prior to the addition of clonal phage, wells were incubated with blocking buffer and CD28 antigen or blocking buffer alone. Without washing or aspirating, clonal phage supernatants were then added to the wells and incubated for a short time. Wells were then washed followed by detection of bound phage using a horse radish conjugated anti-M13 antibody.

[3] = molecular target: T1, anti-CD28 Fab (SEQ ID NOs: 202, 203); test: phage binding ELISA; biotinylated Fab on neutravidin plate;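 further: clonal phage supernatants added to Fab wells pretreated with CD28 antigen or with blocking buffer only, bound phage read out via HRP-linked anti-M13 antibody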
Protocol: as §1

[4] = molecular target: T2, anti-CD28 Fab (SEQ ID NOs: 202, 203); test: phage ELISA on captured Fab;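 further: ELISA with clonal phage supernatants added to wells preincubated with CD28 antigen or with blocking buffer only, bound phage detected by HRP-conjugated anti-M13 antibody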
T2 construct: biotinylated and captured on neutravidin coated plates in the phage ELISA
T2 sequence (VH, as listed by the source, chain 1 of 2): as the sequence (VH, as listed by the source, chain 1 of 2) above
T2 sequence (VL, as listed by the source, chain 2 of 2): as the sequence (VL, as listed by the source, chain 2 of 2) above
Protocol: as §1

[5] = molecular target: T2, anti-CD28 Fab (SEQ ID NOs: 202, 203); test: phage ELISA on captured Fab, wells pre-incubated with CD28 antigen (competitor);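 further: clonal phage ELISA with wells pretreated with CD28 plus blocking buffer before phage addition, bound phage detected by HRP-linked anti-M13 antibody, reference wells got blocking buffer only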
Protocol: as §1

B1: Phage-1136 (peptide)
peptide: PCAAGAMWPWPVCL
Anti-CD28 Fab signal [1]: 1.41

B2: Phage-312 (peptide)
peptide: YCAGHAPQYMEKCL
Anti-CD28 Fab signal in the presence of CD28 [2]: 0.08 | Anti-CD28 Fab (SEQ ID NOs: 202, 203) signal [3]: 1.9

B3: Phage-315 (peptide)
peptide: YCDGHRPEYMEKCL
Anti-CD28 Fab signal in the presence of CD28 [2]: 0.06 | Anti-CD28 Fab (SEQ ID NOs: 202, 203) signal [3]: 1.9

B4: Phage-1209 (peptide)
peptide: PCAAGAQWSWPMCL
Anti-CD28 Fab signal [1]: 1.07

B5: Phage-313 (peptide)
peptide: YCAGHLPQYIAKCL
Anti-CD28 Fab signal in the presence of CD28 [2]: 0.09 | Anti-CD28 Fab (SEQ ID NOs: 202, 203) signal [3]: 1.9

B6: Phage-591 (peptide)
peptide: YCAGHLPQYIQKCL
notes: on phage, pIII fusion
Anti-CD28 Fab (SEQ ID NOs: 202, 203) signal [4]: 1.44 | Anti-CD28 Fab signal in the presence of CD28 [5]: 0.07

B7: Phage-314 (peptide)
peptide: YCDGHLKEYMAKCL
Anti-CD28 Fab signal in the presence of CD28 [2]: 0.07 | Anti-CD28 Fab (SEQ ID NOs: 202, 203) signal [3]: 1.9

B8: Phage-446 (peptide)
peptide: YCDGHAIEYMAKCL
Anti-CD28 Fab signal in the presence of CD28 [2]: 0.08 | Anti-CD28 Fab (SEQ ID NOs: 202, 203) signal [3]: 1.69

B9: Phage-371 (peptide)
peptide: YCDGHLSEYMFKCL
Anti-CD28 Fab signal in the presence of CD28 [2]: 0.1 | Anti-CD28 Fab (SEQ ID NOs: 202, 203) signal [3]: 1.79

B10: Phage-1217 (peptide)
peptide: TCSAGASYSWPYCM
Anti-CD28 Fab signal [1]: 1

B11: Phage-592 (peptide)
peptide: YCEGHLAIYQKKCL
notes: on phage, pIII fusion
Anti-CD28 Fab (SEQ ID NOs: 202, 203) signal [4]: 1.44 | Anti-CD28 Fab signal in the presence of CD28 [5]: 0.06

B12: Phage-1202 (peptide)
peptide: TCSAGAHYEWPKCL
Anti-CD28 Fab signal [1]: 1.12

B13: Phage-588 (peptide)
peptide: YCDGHAEEYMAKCL
notes: on phage, pIII fusion
Anti-CD28 Fab (SEQ ID NOs: 202, 203) signal [4]: 1.45 | Anti-CD28 Fab signal in the presence of CD28 [5]: 0.06

B14: Phage-1214 (peptide)
peptide: MCTAGFSFNWPECL
Anti-CD28 Fab signal [1]: 1.05

B15: Phage-1200 (peptide)
peptide: QCAAGATYPWPVCL
Anti-CD28 Fab signal [1]: 1.13

B16: Phage-570 (peptide)
peptide: YCEGHIMQYMAQCL
notes: on phage, pIII fusion
Anti-CD28 Fab (SEQ ID NOs: 202, 203) signal [4]: 1.49 | Anti-CD28 Fab signal in the presence of CD28 [5]: 0.06

B17: Phage-1142 (peptide)
peptide: TCAAGASYPWPLCV
Anti-CD28 Fab signal [1]: 1.4

B18: Phage-1135 (peptide)
peptide: GCAAGASYPWPACL
Anti-CD28 Fab signal [1]: 1.41

B19: Phage-316 (peptide)
peptide: YCDGHLPEYMGKCL
Anti-CD28 Fab signal in the presence of CD28 [2]: 0.11 | Anti-CD28 Fab (SEQ ID NOs: 202, 203) signal [3]: 1.89

B20: Phage-330 (peptide)
peptide: YCDGHLPEYMRKCL
Anti-CD28 Fab signal in the presence of CD28 [2]: 0.08 | Anti-CD28 Fab (SEQ ID NOs: 202, 203) signal [3]: 1.88

B21: Phage-321 (peptide)
peptide: YCEGHSPEYMWKCL
Anti-CD28 Fab signal in the presence of CD28 [2]: 0.09 | Anti-CD28 Fab (SEQ ID NOs: 202, 203) signal [3]: 1.89

B22: Phage-328 (peptide)
peptide: YCEGHSYEYMWKCL
Anti-CD28 Fab signal in the presence of CD28 [2]: 0.08 | Anti-CD28 Fab (SEQ ID NOs: 202, 203) signal [3]: 1.88

B23: Phage-329 (peptide)
peptide: YCEGHLPEYMMKCL
Anti-CD28 Fab signal in the presence of CD28 [2]: 0.27 | Anti-CD28 Fab (SEQ ID NOs: 202, 203) signal [3]: 1.88

B24: Phage-586 (peptide)
peptide: YCQGHIEPYLAKCL
notes: on phage, pIII fusion
Anti-CD28 Fab (SEQ ID NOs: 202, 203) signal [4]: 1.46 | Anti-CD28 Fab signal in the presence of CD28 [5]: 0.05

B25: Phage-590 (peptide)
peptide: YCEGHLPQYMTKCI
notes: on phage, pIII fusion
Anti-CD28 Fab (SEQ ID NOs: 202, 203) signal [4]: 1.44 | Anti-CD28 Fab signal in the presence of CD28 [5]: 0.08

B26: Phage-1211 (peptide)
peptide: SCAAGFHYEWPQCF
Anti-CD28 Fab signal [1]: 1.06

B27: Phage-1141 (peptide)
peptide: MCAAGAAWAWPLCL
Anti-CD28 Fab signal [1]: 1.4

B28: Phage-1140 (peptide)
peptide: PCSAGVTYAWLYCV
Anti-CD28 Fab signal [1]: 1.41

B29: Phage-1210 (peptide)
peptide: SCAAGSTWAWPACL
Anti-CD28 Fab signal [1]: 1.07

B30: Phage-1218 (peptide)
peptide: WCSEVFSYPWPACL
Anti-CD28 Fab signal [1]: 0.99

B31: Phage-1139 (peptide)
peptide: LCAAGAHYSWPACF
Anti-CD28 Fab signal [1]: 1.41

B32: Phage-1132 (peptide)
peptide: TCAAGAQFAWPLCL
Anti-CD28 Fab signal [1]: 1.41

B33: Phage-1219 (peptide)
peptide: SCTAVFSYALSPCF
Anti-CD28 Fab signal [1]: 0.99

B34: Phage-572 (peptide)
peptide: YCDGHSEQYIAKCL
notes: on phage, pIII fusion
Anti-CD28 Fab (SEQ ID NOs: 202, 203) signal [4]: 1.49 | Anti-CD28 Fab signal in the presence of CD28 [5]: 0.08

B35: Phage-1133 (peptide)
peptide: LCSAGFLFQWSTCL
Anti-CD28 Fab signal [1]: 1.41

B36: Phage-1131 (peptide)
peptide: TCSAGAHYPWPICL
Anti-CD28 Fab signal [1]: 1.41

B37: Phage-1213 (peptide)
peptide: SCAAGAAYAWPWCL
Anti-CD28 Fab signal [1]: 1.05

B38: Phage-598 (peptide)
peptide: YCDGHNFQYMEKCL
notes: on phage, pIII fusion
Anti-CD28 Fab (SEQ ID NOs: 202, 203) signal [4]: 1.44 | Anti-CD28 Fab signal in the presence of CD28 [5]: 0.06

B39: Phage-596 (peptide)
peptide: YCEGHSQEYMAKCL
notes: on phage, pIII fusion
Anti-CD28 Fab (SEQ ID NOs: 202, 203) signal [4]: 1.44 | Anti-CD28 Fab signal in the presence of CD28 [5]: 0.06

B40: Phage-1130 (peptide)
peptide: RCSFRFITLAEACV
Anti-CD28 Fab signal [1]: 1.41

B41: Phage-1208 (peptide)
peptide: TCAAGATWTWPTCM
Anti-CD28 Fab signal [1]: 1.07

B42: Phage-1129 (peptide)
peptide: SCSAGASLQLSQCF
Anti-CD28 Fab signal [1]: 1.41

B43: Phage-1205 (peptide)
peptide: TCAAGANYAWPVCL
Anti-CD28 Fab signal [1]: 1.09

B44: Phage-1207 (peptide)
peptide: TCAAGATYNWPWCF
Anti-CD28 Fab signal [1]: 1.07

B45: Phage-1216 (peptide)
peptide: SCAAVFSFNWPECF
Anti-CD28 Fab signal [1]: 1.01

B46: Phage-587 (peptide)
peptide: YCDGHLAIYMWKCL
notes: on phage, pIII fusion
Anti-CD28 Fab (SEQ ID NOs: 202, 203) signal [4]: 1.45 | Anti-CD28 Fab signal in the presence of CD28 [5]: 0.09

B47: Phage-1138 (peptide)
peptide: TCAAGASWNWPACE
Anti-CD28 Fab signal [1]: 1.41

B48: Phage-571 (peptide)
peptide: YCDGHLPIYQAKCL
notes: on phage, pIII fusion
Anti-CD28 Fab (SEQ ID NOs: 202, 203) signal [4]: 1.49 | Anti-CD28 Fab signal in the presence of CD28 [5]: 0.1

B49: Phage-597 (peptide)
peptide: YCDGHLPEYMNQCL
notes: on phage, pIII fusion
Anti-CD28 Fab (SEQ ID NOs: 202, 203) signal [4]: 1.44 | Anti-CD28 Fab signal in the presence of CD28 [5]: 0.07

B50: Phage-1134 (peptide)
peptide: RCAAGFHYSWPNCF
Anti-CD28 Fab signal [1]: 1.41

B51: Phage-1215 (peptide)
peptide: LCDQFFHYNWPACL
Anti-CD28 Fab signal [1]: 1.04

B52: Phage-1206 (peptide)
peptide: TCAAGAHYEWPQCF
Anti-CD28 Fab signal [1]: 1.08

B53: Phage-1137 (peptide)
peptide: TCSAGATYSWPACL
Anti-CD28 Fab signal [1]: 1.41

B54: Phage-1212 (peptide)
peptide: SCTAGFRIHWPMCF
Anti-CD28 Fab signal [1]: 1.06

B55: Phage-593 (peptide)
peptide: YCEGHAVEYMAKCL
notes: on phage, pIII fusion
Anti-CD28 Fab (SEQ ID NOs: 202, 203) signal [4]: 1.44 | Anti-CD28 Fab signal in the presence of CD28 [5]: 0.07

B56: Phage-1201 (peptide)
peptide: TCSAGATYTWPVCF
Anti-CD28 Fab signal [1]: 1.13

B57: Phage-1204 (peptide)
peptide: TCAAGATYSWPSCF
Anti-CD28 Fab signal [1]: 1.1

B58: Phage-1203 (peptide)
peptide: TCSAGATYSWPLCF
Anti-CD28 Fab signal [1]: 1.12

B59: Phage-1143 (peptide)
peptide: LCAAGFMYEWPLCF
Anti-CD28 Fab signal [1]: 1.4
